This test deals with acetylcholine receptor (Homo sapiens, UniProt P02708). Nature of the test: SPR binding affinity (RU) of optimized 5mer/6mer/7mer peptides, Examples 6-7. To be noted: SPR, peptides tested at 10 μM. The method in brief: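 Synthetic 5mer and 6mer peptides, built from frequent or infrequent amino-acid combinations, were tested at 10 μM for binding to the human acetylcholine receptor by surface plasmon resonance. Binding is reported in response units (RU).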
For orientation: In SPR one partner is held on a chip, and binding of the other changes the refractive index at the surface.

Setting [1] is: Resonance Units, 5mer Bottom sequence (bottom combinations).

Sequence of acetylcholine receptor (P02708 21-457): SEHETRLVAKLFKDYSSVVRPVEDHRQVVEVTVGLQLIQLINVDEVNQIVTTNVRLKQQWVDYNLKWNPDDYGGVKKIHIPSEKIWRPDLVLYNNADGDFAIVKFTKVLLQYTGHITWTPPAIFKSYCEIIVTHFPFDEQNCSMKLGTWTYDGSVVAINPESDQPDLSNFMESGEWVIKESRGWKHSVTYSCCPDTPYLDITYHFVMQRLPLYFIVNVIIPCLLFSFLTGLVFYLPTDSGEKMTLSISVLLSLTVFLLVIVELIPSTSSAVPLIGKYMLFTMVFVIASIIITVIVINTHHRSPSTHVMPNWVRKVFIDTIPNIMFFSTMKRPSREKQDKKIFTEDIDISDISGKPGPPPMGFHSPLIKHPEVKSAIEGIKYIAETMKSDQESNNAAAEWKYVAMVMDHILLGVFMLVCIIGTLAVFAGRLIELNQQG

For the substance 5mer-984 (KNAHK), the Binding affinity under setting [1] is listed as 11 Ru. In the case of 5mer-985 (RDPKR), under setting [1], the Binding affinity is on record as 17 Ru. On the same count and under the same terms, next, 5mer-986 (RPMDK): 12 Ru; 5mer-987 (RAHWR): 22 Ru; 5mer-988 (RCKWR): 17 Ru.

5mer-989 (RCTAR): the Binding affinity under setting [1] amounted to 31 Ru. Turning to 5mer-990 (KEEPK), the Binding affinity under setting [1] is 12 Ru.

Turning to 5mer-991 (RPEFR), the Binding affinity under setting [1] is given as 24 Ru. Turning to 5mer-992 (RNDKK), the Binding affinity under setting [1] is given as 15 Ru. Same read-out and setting: the value for 5mer-993 (KEKFR) was 27 Ru; that for 5mer-994 (KAWVR) was 26 Ru; that for 5mer-995 (KFTDK) was 18 Ru.

5mer-996 (RMTKK): the Binding affinity under setting [1] is on record as 32 Ru. On the same count and under the same terms, next, 5mer-997 (RYPHR): 30 Ru; 5mer-998 (RCTAK): 18 Ru; 5mer-999 (KTKFK): 19 Ru. On the same count and under the same terms, the value for 5mer-1000 (KHCWR) was 20 Ru; that for 5mer-1001 (KPCGK) was 33 Ru; that for 5mer-1002 (KEDNK) was 12 Ru. Same read-out and setting: the value for 5mer-1003 (RMTVR) was 11 Ru; that for 5mer-1004 (RDADR) was 30 Ru; that for 5mer-1005 (RTHGR) was 30 Ru. Regarding 5mer-1006 (KEPER), under setting [1], the Binding affinity came out at 17 Ru. On the same count and under the same terms, next, 5mer-1007 (RDMMR): 30 Ru; 5mer-1008 (KDSNR): 11 Ru.

Take 5mer-1009 (KMCAK): the Binding affinity under setting [1] was found to be 29 Ru. The same measure, in the same setting: the value for 5mer-1010 (KCDNK) was 16 Ru; that for 5mer-1011 (KTDMK) was 25 Ru. The same measure, in the same setting: the value for 5mer-1012 (RHKVR) was 22 Ru; that for 5mer-1013 (KCCVK) was 19 Ru; that for 5mer-1014 (RKNKR) was 23 Ru. Turning to 5mer-1015 (RCWMK), under setting [1], the Binding affinity came to 30 Ru. Still for that read-out and setting: the value for 5mer-1016 (KYTMR) was 28 Ru; that for 5mer-1017 (RCTWK) was 24 Ru. The same measure, in the same setting: the value for 5mer-1018 (KFWAK) was 20 Ru. With 5mer-1019 (RFKFK), the Binding affinity under setting [1] came to 28 Ru. The same measure, in the same setting: the value for 5mer-1020 (KCKVK) was 12 Ru.

With 5mer-1021 (KITHK), the Binding affinity under setting [1] amounted to 26 Ru. As for 5mer-1022 (KIADK), the Binding affinity under setting [1] was 29 Ru.

On to 5mer-1023 (RYCKK), for which the Binding affinity under setting [1] is 13 Ru.

On to 5mer-1024 (KIDNK), for which, under setting [1], the Binding affinity is 26 Ru. With 5mer-1025 (RHKWK), the Binding affinity under setting [1] worked out at 25 Ru.

Take 5mer-1026 (RNAVR): the Binding affinity under setting [1] is given as 20 Ru. On the same count and under the same terms, the value for 5mer-1027 (KNTNR) was 28 Ru; that for 5mer-1028 (RMAMR) was 28 Ru. 5mer-1029 (KADIK): the Binding affinity under setting [1] is 25 Ru. Same read-out and setting: the value for 5mer-1030 (RISDK) was 18 Ru. On to 5mer-1031 (RKEER), for which the Binding affinity under setting [1] turned out to be 13 Ru. Consider 5mer-1032 (RHHMR), for which the Binding affinity under setting [1] is on record as 23 Ru. As for 5mer-1033 (REWDK), the Binding affinity under setting [1] was determined as 28 Ru. Same read-out and setting: the value for 5mer-1034 (RFAKK) was 14 Ru.

Take 5mer-1035 (KEHVR): the Binding affinity under setting [1] was 19 Ru. Same read-out and setting: next, 5mer-1036 (KTHMK): 23 Ru. For 5mer-1037 (KKSFR), the Binding affinity under setting [1] is given as 28 Ru. As for 5mer-1038 (KCCKR), the Binding affinity under setting [1] was 17 Ru. Same read-out and setting: next, 5mer-1039 (KKDVK): 32 Ru; 5mer-1040 (KTPWR): 17 Ru; 5mer-1041 (RDWFK): 27 Ru. The same measure, in the same setting: next, 5mer-1042 (RCCAK): 28 Ru; 5mer-1043 (KFEMK): 15 Ru.

On to 5mer-1044 (RDCFK), for which the Binding affinity under setting [1] is 22 Ru. Still for that read-out and setting: the value for 5mer-1045 (KMDEK) was 22 Ru; that for 5mer-1046 (KHTMR) was 19 Ru.

On to 5mer-1047 (KAHMR), for which the Binding affinity under setting [1] came out at 23 Ru.

In the case of 5mer-1048 (KYDNK), the Binding affinity under setting [1] is 12 Ru.

In the case of 5mer-1049 (KPPGR), the Binding affinity under setting [1] came to 29 Ru. For 5mer-1050 (KPEDR), the Binding affinity under setting [1] was determined as 31 Ru. Same read-out and setting: next, 5mer-1051 (RYAHR): 28 Ru; 5mer-1052 (RNDWR): 17 Ru.

Take 5mer-1053 (KHEHK): the Binding affinity under setting [1] was determined as 27 Ru. Still for that read-out and setting: next, 5mer-1054 (RNKVR): 21 Ru.

For the substance 5mer-1055 (KHHEK), the Binding affinity under setting [1] stood at 15 Ru.

In the case of 5mer-1056 (RCTPK), the Binding affinity under setting [1] is 11 Ru. The same measure, in the same setting: the value for 5mer-1057 (RFDPK) was 13 Ru; that for 5mer-1058 (KIPWR) was 25 Ru; that for 5mer-1059 (RMAGR) was 29 Ru.

For the substance 5mer-1060 (KTHIK), under setting [1], the Binding affinity is given as 29 Ru.

As for 5mer-1061 (KDSFR), the Binding affinity under setting [1] turned out to be 24 Ru. As to 5mer-1062 (RAPWR), the Binding affinity under setting [1] came out at 24 Ru. On the same count and under the same terms, the value for 5mer-1063 (RPHVK) was 20 Ru; that for 5mer-1064 (KCMKR) was 20 Ru. 5mer-1065 (KNPIR): the Binding affinity under setting [1] is 18 Ru. On the same count and under the same terms, next, 5mer-1066 (RFWVK): 25 Ru. For 5mer-1067 (KHENK), under setting [1], the Binding affinity was found to be 23 Ru. Consider 5mer-1068 (RMHKK), for which, under setting [1], the Binding affinity is on record as 11 Ru. Still for that read-out and setting: next, 5mer-1069 (RPSFK): 31 Ru; 5mer-1070 (RETGK): 26 Ru. Still for that read-out and setting: next, 5mer-1071 (RYEGR): 16 Ru. Same read-out and setting: the value for 5mer-1072 (KDWPK) was 32 Ru; that for 5mer-1073 (RDEAK) was 29 Ru. 5mer-1074 (RPCPR): the Binding affinity under setting [1] amounted to 17 Ru. The same measure, in the same setting: next, 5mer-1075 (RKHIK): 26 Ru; 5mer-1076 (KFEKK): 21 Ru. Same read-out and setting: next, 5mer-1077 (KADMK): 12 Ru; 5mer-1078 (KEAWK): 19 Ru; 5mer-1079 (KYTGR): 31 Ru. Same read-out and setting: next, 5mer-1080 (RYTHK): 25 Ru; 5mer-1081 (RPNVR): 13 Ru; 5mer-1082 (RACFR): 11 Ru. Take 5mer-1083 (KFSVR): the Binding affinity under setting [1] was 31 Ru. As for 5mer-1084 (RTHDR), under setting [1], the Binding affinity turned out to be 21 Ru. Regarding 5mer-1085 (RTTER), the Binding affinity under setting [1] came to 14 Ru.

Turning to 5mer-1086 (RIWDR), the Binding affinity under setting [1] came out at 19 Ru.

Take 5mer-1087 (KKKKR): the Binding affinity under setting [1] is listed as 11 Ru. Regarding 5mer-1088 (KAKKK), the Binding affinity under setting [1] is 16 Ru. The same measure, in the same setting: the value for 5mer-1089 (KTHHR) was 29 Ru; that for 5mer-1090 (KISGK) was 31 Ru; that for 5mer-1091 (KTEHR) was 29 Ru. For the substance 5mer-1092 (KPMVK), the Binding affinity under setting [1] stood at 12 Ru. Same read-out and setting: next, 5mer-1093 (REEDK): 32 Ru. On the same count and under the same terms, next, 5mer-1094 (RYSMK): 15 Ru; 5mer-1095 (KAEKR): 27 Ru; 5mer-1096 (RPTDK): 15 Ru. On the same count and under the same terms, the value for 5mer-1097 (KPDIR) was 28 Ru; that for 5mer-1098 (RFHGR) was 31 Ru; that for 5mer-1099 (RATAR) was 14 Ru. As to 5mer-1100 (RPWKR), under setting [1], the Binding affinity stood at 24 Ru. Same read-out and setting: next, 5mer-1101 (KYKNR): 11 Ru.

5mer-1102 (KTHKK): under setting [1], the Binding affinity turned out to be 20 Ru. The same measure, in the same setting: next, 5mer-1103 (KKSHR): 18 Ru; 5mer-1104 (RETHK): 12 Ru. The same measure, in the same setting: the value for 5mer-1105 (RPTKR) was 33 Ru; that for 5mer-1106 (RYTER) was 18 Ru. The same measure, in the same setting: the value for 5mer-1107 (RPWHK) was 21 Ru. Turning to 5mer-1108 (RNPIR), under setting [1], the Binding affinity is 19 Ru. On the same count and under the same terms, the value for 5mer-1109 (KCHPK) was 14 Ru; that for 5mer-1110 (RMHMK) was 13 Ru; that for 5mer-1111 (KAEHK) was 12 Ru. Consider 5mer-1112 (RTTFK), for which the Binding affinity (5mer Bottom sequence) worked out at 29 Ru.

Turning to 5mer-1113 (RHMER), where the note is “5mer Bottom sequence”, the Binding affinity is given as 19 Ru. Turning to 5mer-1114 (RKTFR), the Binding affinity (5mer Bottom sequence) was found to be 28 Ru. Consider 5mer-1115 (KEPEK), for which the Binding affinity (5mer Bottom sequence) is 27 Ru.

Turning to 5mer-1116 (KECFR), where the note is “5mer Bottom sequence”, the Binding affinity stood at 24 Ru.

With 5mer-1117 (RHKIR), the Binding affinity (5mer Bottom sequence) is 11 Ru. In the case of 5mer-1118 (RMDAR), for the setting “5mer Bottom sequence”, the Binding affinity came out at 28 Ru. The same measure, in the same setting: the value for 5mer-1119 (KMNIK) was 19 Ru; that for 5mer-1120 (RPPDR) was 33 Ru; that for 5mer-1121 (RFKVK) was 29 Ru. Still for that read-out and setting: the value for 5mer-1122 (RNTDR) was 14 Ru.

For the origin of these results see patent publication US20250011363A1, “OPTIMIZED SHORTENED PEPTIDE THAT BINDS TO ACETYLCHOLINE RECEPTOR, AND USE THEREOF” (SKINMED CO., LTD., priority 2021, published 2025).
